IntAct's records for PubMed 17043237

B1: Pre-B-cell leukemia transcription factor-interacting protein 1 (Homo sapiens), Q96AQ6-1 (parent)
chain: MASCPDSDNSWVLAGSESLPVETLGPASRMDPESERALQAPHSPSKTDGKELAGTMDGEGTLFQTESPQSGSILTEETEVKGTLEGDVCGVEPPGPGDTVVQGDLQETTVVTGLGPDTQDLEGQSPPQSLPSTPKAAWIREEGRCSSSDDDTDVDMEGLRRRRGREAGPPQPMVPLAVENQAGGEGAGGELGISLNMCLLGALVLLGLGVLLFSGGLSESETGPMEEVERQVLPDPEVLEAVGDRQDGLREQLQAPVPPDSVPSLQNMGLLLDKLAKENQDIRLLQAQLQAQKEELQSLMHQPKGLEEENAQLRGALQQGEAFQRALESELQQLRARLQGLEADCVRGPDGVCLSGGRGPQGDKAIREQGPREQEPELSFLKQKEQLEAEAQALRQELERQRRLLGSVQQDLERSLQDASRGDPAHAGLAELGHRLAQKLQGLENWGQDPGVSANASKAWHQKSHFQNSREWSGKEKWWDGQRDRKAEHWKHKKEESGRERKKNWGGQEDREPAGRWKEGRPRVEESGSKKEGKRQGPKEPPRKSGSFHSSGEKQKQPRWREGTKDSHDPLPSWAELLRPKYRAPQGCSGVDECARQEGLTFFGTELAPVRQQELASLLRTYLARLPWAGQLTKELPLSPAFFGEDGIFRHDRLRFRDFVDALEDSLEEVAVQQTGDDDEVDDFEDFIFSHFFGDKALKKRSGKKDKHSQSPRAAGPREGHSHSHHHHHRG

Variants of: B1
Conditions: with esr1_human ESR1, P03372
Sequence of esr1_human ESR1, P03372 (P03372 whole entry): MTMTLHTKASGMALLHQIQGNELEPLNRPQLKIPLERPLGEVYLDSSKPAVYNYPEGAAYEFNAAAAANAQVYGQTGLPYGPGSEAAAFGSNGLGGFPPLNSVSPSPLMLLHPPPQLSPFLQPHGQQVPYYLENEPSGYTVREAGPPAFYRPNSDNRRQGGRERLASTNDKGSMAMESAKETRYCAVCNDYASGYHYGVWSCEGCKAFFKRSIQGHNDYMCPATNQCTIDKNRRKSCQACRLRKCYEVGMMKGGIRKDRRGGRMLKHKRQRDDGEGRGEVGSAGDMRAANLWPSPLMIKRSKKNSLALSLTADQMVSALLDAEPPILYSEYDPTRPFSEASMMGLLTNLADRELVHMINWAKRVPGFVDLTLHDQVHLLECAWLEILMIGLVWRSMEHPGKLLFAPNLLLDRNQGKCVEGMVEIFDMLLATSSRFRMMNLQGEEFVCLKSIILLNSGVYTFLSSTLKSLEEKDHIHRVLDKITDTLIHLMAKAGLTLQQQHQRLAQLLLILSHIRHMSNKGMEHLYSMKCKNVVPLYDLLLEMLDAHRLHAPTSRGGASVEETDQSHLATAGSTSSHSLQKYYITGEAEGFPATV

Variant | effect of a mutation on the interaction
L615A;L618A;L619A | disrupting interaction strength
